Where two headings read alike, the source gives them in different places.
Assays:
[1] = biological target: JRCSF SOSIP (chimeric SOSIP Env trimer: gp120 from JRCSF.JB, gp41 from BG505 with MD39 substitutions) (HIV-1 strain JRCSF.JB | HIV-1 strain BG505); assay: mass photometry; Fab-SOSIP complexes formed at room temperature in TBS overnight, 4 uM trimer, 1.05 molar excess of Fab to SOSIP protomer, not purified by SEC; diluted to 8 nM trimer and a further 10-fold (6535.3) or 4-fold (JRCSF) on the instrument; SOSIP alone as control
[2] = biological target: 6535.3 SOSIP (chimeric SOSIP Env trimer: gp120 from 6535.3, gp41 from BG505 with MD39 substitutions) (HIV-1 strain 6535.3 | HIV-1 strain BG505); assay: as above
[3] = biological target: JRCSF SOSIP (chimeric SOSIP Env trimer: gp120 from JRCSF.JB, gp41 from BG505 with MD39 substitutions) (HIV-1 strain JRCSF.JB | HIV-1 strain BG505); assay: cryo-EM structure; SOSIP complexed with Fab at room temperature overnight, about 1.3:1 molar excess Fab:SOSIP protomer; SEC (Superose 6 Increase) in TBS; ~1.1 mg/mL (JRCSF/Ab1456) or ~1.9 mg/mL (6535.3/Ab1271); no sCD4 or CD4 mimetic
[4] = biological target: JRCSF SOSIP (chimeric SOSIP Env trimer: gp120 from JRCSF.JB, gp41 from BG505 with MD39 substitutions) (HIV-1 strain JRCSF.JB | HIV-1 strain BG505); assay: as above; remark: listed apart in the source
[5] = biological target: JRCSF SOSIP (chimeric SOSIP Env trimer: gp120 from JRCSF.JB, gp41 from BG505 with MD39 substitutions) (HIV-1 strain JRCSF.JB | HIV-1 strain BG505); assay: as above; remark: listed apart in the source
[6] = biological target: 6535.3 SOSIP (chimeric SOSIP Env trimer: gp120 from 6535.3, gp41 from BG505 with MD39 substitutions) (HIV-1 strain 6535.3 | HIV-1 strain BG505); assay: as above

JRCSF SOSIP (chimeric SOSIP Env trimer: gp120 from JRCSF.JB, gp41 from BG505 with MD39 substitutions) (complex)
stoichiometry N [1]: 3

6535.3 SOSIP (chimeric SOSIP Env trimer: gp120 from 6535.3, gp41 from BG505 with MD39 substitutions) (complex)
stoichiometry N [2]: 3

B1: Ab1456 Fab (Fab, V domains shown)
VH: QVQLVESGAEVKRPGDSLKISCKTSGDVFTSTWITWVRQMPGKDLEWMASIYLDDSDTQYNPSFQGHVTISADKSINTIYLQLSSLKVSDTATYYCAKWGVDCSDSGCSSAFDSWGQGVLVTVSS
VL: SYELTQPPSVSGAPGQRVTISCTGGTSNIGNYYVQWYQQLPGTAPKLLIYENNKRPSGISDRFSGSQSGTSGSLTITTGLQSEDEADYFCQSYDDSLSAHVFGSGTKVTIL
stoichiometry N (Fab per trimer) [3]: 3 | stoichiometry N (Fab per trimer) [4]: 2 | stoichiometry N (Fab per trimer) [5]: 1

B2: Ab1271 Fab (Fab, V domains shown)
VH: QVQLVESGPGLVKPSETLSLTCAVSGDSISSTWWNWIRQPPGKGLEWIGRISGDGGNTDYSPSLKSRVTISTDTSKNQLSLRLTSVAAADTAVYFCAAPDCSGPDCSPGFDYWGPGVLVTVSS
VL: QPVLTQPPSVSGAPGQRVTISCTGSSSDIGRFYVQWYQQLPGTAPKLLIYENTKRPSGISDRFSGSQSGPSASLTITGLQSEDEADYYCQSYDSSMSAHVLFGGGTRLTVL
stoichiometry N (Fab per trimer) [6]: 1 | stoichiometry N (Fab per trimer) [2]: 1

Source: article PMC11621127
